Data: the RNAGym collection of RNA variant scans (doi:10.7554/elife.80360)

B1: HDV Ribozyme (parent)
chain: GGCCGGCAUGGUCCCAGCCUCCUCGCUGGCGCCGGCUGGGCAACAUUCCGAGGGGACCGUCCCCUCGGUAAUGGCGAAUGGGACCCA

Variants of: B1
Assay: self-cleavage, relative activity (ratio to wild type); higher = more cleavage; co-transcriptional

Compared with C32A G67C, U23G G55U is higher in self-cleavage: 0.154 for the first, 0.502 for the second.

First: U23G C86G
Second: G54A C84G
The self-cleavage of the first is higher: 0.525 for the first, 0.462 for the second.

First: A45U U72G
Second: G52A G53C
The self-cleavage of the first is higher: 0.755 for the first, 0.743 for the second.

First: U37C G68C
Second: A43U G54C
The self-cleavage of the first is higher: 0.682 for the first, 0.196 for the second.

First: C18U G54A
Second: G17A G81U
The self-cleavage of the first is higher: 0.295 for the first, 0.182 for the second.

Compared with U9C C66G, A8G U9A is lower in self-cleavage: 1.04 for the first, 0.506 for the second.

Going from C3A G10C to C32G G74U, the self-cleavage falls from 0.504 to 0.125.

First: G40A C63A
Second: C48U U60A
The self-cleavage of the first is lower: 0.856 for the first, 1 for the second.

First: C15G A51C
Second: A43U G50C
The self-cleavage of the first is higher: 0.623 for the first, 0.492 for the second.

Going from U37G C61U to C36U A45U, the self-cleavage rises from 0.138 to 0.658.

First: C32G G55C
Second: G29A C36G
The self-cleavage of the first is higher: 0.136 for the first, 0.111 for the second.

Going from C30U U60A to G40A C64A, the self-cleavage rises from 0.69 to 0.89.

Compared with A8G G34U, U72G G74A is higher in self-cleavage: 0.429 for the first, 0.431 for the second.

Going from C24G U72A to G55U U79C, the self-cleavage rises from 0.0437 to 0.395.

First: G59U U60A
Second: C24G A83C
The self-cleavage of the first is higher: 1.21 for the first, 0.0923 for the second.

Compared with U27G G40C, G31A U60C is higher in self-cleavage: 0.0639 for the first, 0.32 for the second.

First: G54C G55C
Second: C7U C86G
The self-cleavage of the first is higher: 0.981 for the first, 0.617 for the second.

Compared with U47C C49U, G1U G76U is lower in self-cleavage: 0.864 for the first, 0.359 for the second.

Going from G55C A87C to C15G C58U, the self-cleavage falls from 1.11 to 0.482.

Going from C3G A71C to G38C G68U, the self-cleavage rises from 0.261 to 0.272.

Going from C18G C66A to G25U G39C, the self-cleavage rises from 0.0437 to 0.0773.

Going from C4U C86G to G25C C75U, the self-cleavage falls from 0.831 to 0.

Compared with A42C C85U, U9A C58G is higher in self-cleavage: 0.415 for the first, 0.929 for the second.

Compared with G5U C22G, C22A C61G is higher in self-cleavage: 0.0615 for the first, 0.323 for the second.

Compared with C32A G81U, U37G U79C is lower in self-cleavage: 0.136 for the first, 0 for the second.

Going from U23G C30G to G59C G81U, the self-cleavage rises from 0.0536 to 0.415.

Compared with G1U C58A, G29U C84G is lower in self-cleavage: 0.237 for the first, 0.0277 for the second.

Compared with G10A A45C, C4U C49U is higher in self-cleavage: 0.219 for the first, 0.789 for the second.

Compared with G50U C64U, C36A U60A is lower in self-cleavage: 0.901 for the first, 0.198 for the second.

Going from C41G U46A to U60G C84G, the self-cleavage rises from 0.293 to 0.902.

Compared with C7U G39A, C14A C49U is higher in self-cleavage: 0.3 for the first, 0.7 for the second.

First: U60C C64G
Second: G11C C36A
The self-cleavage of the first is higher: 0.776 for the first, 0.0536 for the second.

First: G34A G53U
Second: U9G C64G
The self-cleavage of the first is lower: 0.17 for the first, 0.831 for the second.

Going from C30U U37C to G11C C85A, the self-cleavage rises from 0.906 to 1.18.

Going from U65C C75U to A16C G39C, the self-cleavage falls from 0.185 to 0.0831.

Going from U72A G81U to G5C C84G, the self-cleavage rises from 0.166 to 0.332.

Going from C7G C61U to G10A G25U, the self-cleavage falls from 0.237 to 0.0678.

Going from G1C C21U to G34A C63U, the self-cleavage rises from 0 to 0.0656.

First: C24A A70U
Second: U47G A56G
The self-cleavage of the first is lower: 0.612 for the first, 1.08 for the second.

First: G40C U47G
Second: C15U G38U
The self-cleavage of the first is lower: 0.173 for the first, 0.259 for the second.

Going from A78C G81A to C21A C30A, the self-cleavage falls from 0.17 to 0.0373.

First: A8G G53A
Second: G35C U72A
The self-cleavage of the first is higher: 1.04 for the first, 0 for the second.

Compared with C13U C63G, A70C C85U is higher in self-cleavage: 0.233 for the first, 1.07 for the second.

Compared with G29A A45U, G55C G67U is higher in self-cleavage: 0.0332 for the first, 0.967 for the second.

Going from C41U C86G to U23G C61U, the self-cleavage rises from 0.784 to 0.923.

First: G29A A56G
Second: G40U U65C
The self-cleavage of the first is lower: 0.224 for the first, 0.7 for the second.

Going from G31C C75A to U9G C63U, the self-cleavage rises from 0.13 to 1.07.

Going from U23G A45U to C58U U72C, the self-cleavage rises from 0.312 to 0.415.

Going from G73U C75G to A42G G76U, the self-cleavage rises from 0.086 to 0.782.

First: C30U A83C
Second: C24U C86G
The self-cleavage of the first is lower: 0.332 for the first, 0.577 for the second.

Going from C26A G34C to U69G C85A, the self-cleavage rises from 0.111 to 1.18.

Compared with G28A C86A, G2C G53A is higher in self-cleavage: 0.0256 for the first, 0.108 for the second.

First: G11A U12A
Second: G35C G81A
The self-cleavage of the first is higher: 0.0831 for the first, 0.0332 for the second.

Compared with C14G U72A, C14G U72C is lower in self-cleavage: 0.383 for the first, 0.0978 for the second.

Compared with U37C G52A, G38C C86A is lower in self-cleavage: 1.25 for the first, 0.136 for the second.

First: U9C G11U
Second: U12G G17A
The self-cleavage of the first is higher: 0.383 for the first, 0.277 for the second.

Compared with C15G G68U, G31A C58U is higher in self-cleavage: 0.369 for the first, 0.399 for the second.

First: C18U C84G
Second: C14U U69A
The self-cleavage of the first is lower: 0.308 for the first, 1.02 for the second.

First: C19U A77U
Second: C24G G29A
The self-cleavage of the first is lower: 0.107 for the first, 0.188 for the second.

Compared with U23G C36A, A42U G52U is higher in self-cleavage: 0.203 for the first, 0.592 for the second.

Compared with C4G A51U, U27G U46A is higher in self-cleavage: 0.284 for the first, 0.332 for the second.

First: G35C C57U
Second: G28U A45G
The self-cleavage of the first is lower: 0.185 for the first, 0.208 for the second.

Going from A42G C75G to G59C A87C, the self-cleavage rises from 0 to 1.08.

Going from C57A G59A to G67C C84A, the self-cleavage falls from 1.04 to 0.682.

First: G40C G68U
Second: G6A G25A
The self-cleavage of the first is higher: 0.245 for the first, 0.121 for the second.

Compared with U37G G68C, G50A G74U is higher in self-cleavage: 0.246 for the first, 0.483 for the second.

Going from G2C U79C to G35A C58U, the self-cleavage rises from 0.101 to 0.478.

Going from G10C G53A to G50U U72A, the self-cleavage falls from 0.95 to 0.554.

Compared with C22G C30A, C15G C66G is higher in self-cleavage: 0.0652 for the first, 0.475 for the second.

Going from G68C A77G to G2A C66G, the self-cleavage falls from 0.554 to 0.213.

Going from C30A A87C to G1U C30U, the self-cleavage falls from 0.596 to 0.35.

First: A45G C49G
Second: C13G G38A
The self-cleavage of the first is higher: 0.831 for the first, 0.0302 for the second.

Going from U12A C36G to U27G G59U, the self-cleavage rises from 0.0707 to 1.03.

Compared with G35A C61A, G29A G82U is lower in self-cleavage: 0.635 for the first, 0.0911 for the second.

Compared with G34U G68U, G31A G81C is higher in self-cleavage: 0.0966 for the first, 0.179 for the second.

Compared with C48G G73C, C24U C49G is higher in self-cleavage: 0.403 for the first, 0.536 for the second.

Compared with U23G A71G, C62A G80C is lower in self-cleavage: 0.831 for the first, 0.0594 for the second.

Going from C63A G67A to G50U U60A, the self-cleavage rises from 0.35 to 0.87.

Compared with C7G G55C, C15G U65A is higher in self-cleavage: 0.214 for the first, 0.831 for the second.

Compared with C21A G39A, U12C G39A is higher in self-cleavage: 0.0277 for the first, 0.106 for the second.

Compared with C58U C84U, A8U C49G is higher in self-cleavage: 0.731 for the first, 0.76 for the second.

Compared with U23A C41U, U9G G52U is lower in self-cleavage: 1.14 for the first, 1.03 for the second.

Going from A51G G73A to G35U U47A, the self-cleavage falls from 0.864 to 0.332.

G67U A83U gave a self-cleavage of 0.469.
